In general, Km refers to the concentration of substrate that gives half-maximal velocity.

The subject of series [1] is other serine hydrolases (e.g. α-lytic protease). The conditions noted are these: cited from earlier work.
In series [2] the test system is CCCC(=O)Oc1ccc([N+](=O)[O-])cc1. Nature of the series: Inhibition of Gly137Asp LcαE7, 4-nitrophenol butyrate hydrolysis. The class given is biochemical, Lucilia cuprina. The conditions noted are these: other: Gly137Asp αE7, room temperature; pH 7.5. An excerpt:
(§1) The term “carboxyethylesterase” (CBE), refers to insect carboxylesterases from the alpha and beta and non-microsomal gene clusters, as defined in Oakeshott, Claudianos, Campbell, Newcomb and Russell, “Biochemical Genetic and Genomics of Insect Esterases”, pp 309-381, Chapter 10, Volume 5, 2005, Eds. Gilbert, Iatrou, Gill, published—Elsevier which is incorporated herein by reference. The αE7 CBE is an example of an alpha esterase, and is found in the sheep blowfly, Lucilia cuprina, with homologous genes being present in other insect pests. […]
(§2) His6-tagged proteins were expressed in BL21(DE3) E. coli (Invitrogen) at 26° C. for 18 hours. […] Protein concentration was determined by measuring the absorbance at 280 nm with an extinction coefficient calculated using the Protparam online server (Gasteiger, E. et al. Protein identification and analysis tools on the ExPASy server. Proteomics Protoc. Handb. 571-607 (2005). doi:10.1385/1-59259-890-0:571).
(§3) Inhibition of wild-type αE7 and the Gly137Asp αE7 variant was determined by a competition assay between the native-substrate analogue 4-nitrophenol butyrate (Sigma) and the boronic acid compounds. Initially, the Michalis constant (KM) with 4-nitrophenol butyrate was measured for both enzymes to determine an appropriate concentration of substrate for use in the competition assays. […]

Series [3] shares this test system. Kind of series: Inhibition of wild-type LcαE7, 4-nitrophenol butyrate hydrolysis. The class given is biochemical, Lucilia cuprina. The conditions noted are these: other: wildtype αE7, room temperature; pH 7.5.
From the text: as §1, §2, §3

With `OB(O)c1ccccc1` [PBA, phenylboronic acid], the “inhibition of other serine hydrolases” value in series [1] was “micromolar to millimolar inhibition”.

Consider “Lucilia cuprina αE7 carboxylesterase (LcαE7) variant Gly137Asp (Lucilia cuprina; G137D)”, for which, in series [2], the Michaelis-Menten constant (Km) amounted to 250 µM.

Take “Lucilia cuprina αE7 carboxylesterase (LcαE7), wild type, GenBank AAB67728.1 (Lucilia cuprina)”: in series [3], the Km was determined as 15 µM.

Source of the values: patent US20190327974A1, “SYNERGISTS FOR IMPROVED PESTICIDES” (priority 2017, published 2019).
